Among the targets are Aβ1-40 (UniProt P05067); Aβ1-38 (UniProt P05067); fibrillar Aβ1-42 (UniProt P05067); protofibrillar Aβ1-42 (UniProt P05067).
Series [1] concerns the target high-molecular-weight (MW) Aβ assemblies (UniProt P05067).
The target of series [2] is Aβ1-42 (fresh, nonaggregated synthetic peptide, rPeptide) (UniProt P05067).

The text below walks through data of US20080160008.

Aβ1-42 (fresh, nonaggregated synthetic peptide, rPeptide), sequence (P05067 whole entry, looked up, tested part not stated): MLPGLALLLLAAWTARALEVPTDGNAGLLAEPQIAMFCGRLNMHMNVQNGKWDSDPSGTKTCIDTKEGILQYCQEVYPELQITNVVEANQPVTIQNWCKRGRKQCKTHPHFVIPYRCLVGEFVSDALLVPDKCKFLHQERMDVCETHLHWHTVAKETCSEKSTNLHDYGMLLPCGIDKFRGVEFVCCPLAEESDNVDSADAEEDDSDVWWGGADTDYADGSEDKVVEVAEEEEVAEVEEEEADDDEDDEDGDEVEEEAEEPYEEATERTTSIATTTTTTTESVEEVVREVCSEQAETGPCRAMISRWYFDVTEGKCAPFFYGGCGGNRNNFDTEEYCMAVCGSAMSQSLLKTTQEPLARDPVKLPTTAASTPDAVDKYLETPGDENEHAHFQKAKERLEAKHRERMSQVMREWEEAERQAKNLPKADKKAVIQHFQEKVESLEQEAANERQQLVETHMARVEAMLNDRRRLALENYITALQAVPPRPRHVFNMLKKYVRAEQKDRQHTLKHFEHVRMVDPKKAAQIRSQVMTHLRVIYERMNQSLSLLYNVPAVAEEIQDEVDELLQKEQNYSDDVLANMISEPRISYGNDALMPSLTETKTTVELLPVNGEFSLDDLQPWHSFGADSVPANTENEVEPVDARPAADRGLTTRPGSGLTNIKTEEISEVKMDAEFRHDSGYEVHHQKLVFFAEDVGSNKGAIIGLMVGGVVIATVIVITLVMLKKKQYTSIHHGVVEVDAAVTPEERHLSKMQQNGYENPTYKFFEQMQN
protofibrillar Aβ1-42, sequence (P05067 whole entry, looked up, tested part not stated): as above
fibrillar Aβ1-42, sequence (P05067 whole entry, looked up, tested part not stated): as above
high-molecular-weight (MW) Aβ assemblies, sequence (P05067 whole entry, looked up): as the sequence (P05067 whole entry, looked up, tested part not stated) above
Aβ1-38, sequence (P05067 whole entry, looked up, tested part not stated): as above
Aβ1-40, sequence (P05067 whole entry, looked up, tested part not stated): as above

With purified CatB from human liver (Sigma), in series [1], the “western blot of Tricine SDS-PAGE gels” value is reported as “Incubation of CatB induced a marked decrease in the amounts of high-molecular-weight (MW) Aβ assemblies”. In the series with Aβ1-40, the “proteolytic products analyzed with SELDI-TOF mass spectrometry” value (shortened to “proteolytic products analyzed”) is “Levels of Aβ1-40 were increased initially at lower doses (100-400 ng/ml), but decreased at higher doses (0.4-2.5 µg/ml)”. In addition, in the series with Aβ1-38, the “proteolytic products analyzed” value is given as “even when Aβ1-40 was almost completely converted to Aβ1-38, no Aβ1-36 was generated from Aβ1-38”. Also, in the series with fibrillar Aβ1-42, the “SELDI-TOF mass spectrometry of cleavage at pH 7.0” value is “protofibrillar/nonfibrillar Aβ oligomers and fibrillar Aβ1-42 preparations were cleaved by CatB even at neutral pH, resulting in the same truncated Aβ species observed at pH 6.0”; the “amount of fibrillar structures by electron microscopy” value is listed as “incubation of fibrillar Aβ1-42 with CatB did reduce the amount of fibrillar structures”. Moreover, in series [2], the “SELDI-TOF mass spectrometry of cleavage at pH 7.0” value is “At neutral pH (˜7.0), the ability of CatB to cleave Aβ, especially nonaggregated (fresh) Aβ, was markedly reduced”; the “proteolytic products analyzed” value was “Incubating Aβ1-42 with CatB resulted in the dose-dependent generation of Aβ1-40, Aβ1-38, and Aβ1-33 through proteolytic cleavage at Val40-Ile41, Gly38-Gly39, and Gly33-Leu34”; the “western blot analysis of acid-urea gels” value is “The dose-dependent cleavage of Aβ1-42 was confirmed by western blot analysis of acid-urea gels”; the “western blot of Tricine SDS-PAGE gels” value is “Levels of low-MW Aβ1-42 oligomers and monomers, detected with an antibody specific for Aβ1-42, were also reduced”. For the same substance, in the series with protofibrillar Aβ1-42, the “SELDI-TOF mass spectrometry of cleavage at pH 6.0” value was “at pH 6.0, were cleaved by CatB as efficiently as nonaggregated preparations, resulting in the same C-terminally-truncated peptides, Aβ1-40, Aβ1-38, and Aβ1-33”; the “SELDI-TOF mass spectrometry of cleavage at pH 7.0” value is “protofibrillar/nonfibrillar Aβ oligomers and fibrillar Aβ1-42 preparations were cleaved by CatB even at neutral pH, resulting in the same truncated Aβ species observed at pH 6.0”.
